{
  "source": "patent US20250110130",
  "key": {"[1]": {"tested_on": "Probe #117"}, "[2]": {"tested_on": "Probe #263"}, "[3]": {"tested_on": "Probe #417"}, "[4]": {"tested_on": "Probe #554"}, "[5]": {"tested_on": "Probe #349"}, "[6]": {"tested_on": "Probe #387"}, "[7]": {"tested_on": "Probe #411"}},
  "data": [
    {"substance": "MMP20", "values": [
      {"measurement": "fluorescence read of probe cleavage, recombinant protease assay", "setting": "[1]", "value": "Probe #117 sensed MMP2 and MMP20 (FIG. 55D)"}
    ]},
    {"substance": "MMP13", "values": [
      {"measurement": "fluorescence read of probe cleavage, recombinant protease assay", "setting": "[2]", "value": "Probe #263 sensed MMP13 (FIG. 55E)"},
      {"measurement": "fluorescence read of probe cleavage, recombinant protease assay", "setting": "[3]", "value": "Probe #417 sensed MMP1, MMP2, MMP8, MMP13, and MMP14 (FIG. 55C)"},
      {"measurement": "fluorescence read of probe cleavage, recombinant protease assay", "setting": "[4]", "value": "Probe #554 sensed MMP1, MMP2, MMP13, MMP14, and DPP4 (FIG. 55F)"}
    ]},
    {"substance": "MMP8", "values": [
      {"measurement": "fluorescence read of probe cleavage, recombinant protease assay", "setting": "[3]", "value": "Probe #417 sensed MMP1, MMP2, MMP8, MMP13, and MMP14 (FIG. 55C)"}
    ]},
    {"substance": "MMP14", "values": [
      {"measurement": "fluorescence read of probe cleavage, recombinant protease assay", "setting": "[3]", "value": "Probe #417 sensed MMP1, MMP2, MMP8, MMP13, and MMP14 (FIG. 55C)"},
      {"measurement": "fluorescence read of probe cleavage, recombinant protease assay", "setting": "[4]", "value": "Probe #554 sensed MMP1, MMP2, MMP13, MMP14, and DPP4 (FIG. 55F)"}
    ]},
    {"substance": "MMP2", "values": [
      {"measurement": "fluorescence read of probe cleavage, recombinant protease assay", "setting": "[1]", "value": "Probe #117 sensed MMP2 and MMP20 (FIG. 55D)"},
      {"measurement": "fluorescence read of probe cleavage, recombinant protease assay", "setting": "[5]", "value": "Probe #349 sensed MMP2 and DPP4 (FIG. 55A)"},
      {"measurement": "fluorescence read of probe cleavage, recombinant protease assay", "setting": "[3]", "value": "Probe #417 sensed MMP1, MMP2, MMP8, MMP13, and MMP14 (FIG. 55C)"},
      {"measurement": "fluorescence read of probe cleavage, recombinant protease assay", "setting": "[4]", "value": "Probe #554 sensed MMP1, MMP2, MMP13, MMP14, and DPP4 (FIG. 55F)"}
    ]},
    {"substance": "MMP1", "values": [
      {"measurement": "fluorescence read of probe cleavage, recombinant protease assay", "setting": "[3]", "value": "Probe #417 sensed MMP1, MMP2, MMP8, MMP13, and MMP14 (FIG. 55C)"},
      {"measurement": "fluorescence read of probe cleavage, recombinant protease assay", "setting": "[4]", "value": "Probe #554 sensed MMP1, MMP2, MMP13, MMP14, and DPP4 (FIG. 55F)"}
    ]},
    {"substance": "DPP4", "values": [
      {"measurement": "fluorescence read of probe cleavage, recombinant protease assay", "setting": "[5]", "value": "Probe #349 sensed MMP2 and DPP4 (FIG. 55A)"},
      {"measurement": "fluorescence read of probe cleavage, recombinant protease assay", "setting": "[6]", "value": "Probe #387 sensed DPP4 (FIG. 55G)"},
      {"measurement": "fluorescence read of probe cleavage, recombinant protease assay", "setting": "[7]", "value": "Probe #411 sensed DPP4 (FIG. 55B)"},
      {"measurement": "fluorescence read of probe cleavage, recombinant protease assay", "setting": "[4]", "value": "Probe #554 sensed MMP1, MMP2, MMP13, MMP14, and DPP4 (FIG. 55F)"}
    ]}
  ]
}
